We go through two molecules from US20020002269A1, “ARTEMIN, A NEUROTROPHIC FACTOR” (priority 1998, published 2002).

The target in one test is T1, RET (Homo sapiens, UniProt P07949).
T1 construct: both the SH-SY5Y and NBL-S cell lines express GFRα1, GFRα2, and GFRα3, as well as RET; endogenous in cells; host or cells: NBL-S neuroblastoma cells
The test is described as follows: Western blot of RET phosphorylation and MAP kinase activation in NBL-S cells, with or without PI-PLC. The conditions noted are these: FIG. 9B. The format is cell-based. The method, then: In brief, SCG neurons were dissected from postnatal day 1 (P1) rats and maintained in NGF-containing medium for 5 days, after which they were deprived of NGF by switching to NGF-free medium in the presence of anti-NGF antibodies. After 2 hours without NGF, neurons were switched to medium containing NGF, GDNF or artemin at 50 ng/ml for 20 minutes. Cells were washed in cold PBS, and collected in immunoprecipitation buffer (1 mM EDTA/1 mM EGTA/0.2 mM NaVO3/1 mM Pefabloc/1 uM pepstatin A/10 ug/ml leupeptin/2 ug/ml aprotinin/1% Triton X-100/0.5% Nonidet P-40/150 mM NaCl in 10 mM Tris, pH 7.4). The lysates were incubated with 30 μl agarose-conjugated anti-phosphotyrosine antibodies (Calbiochem) at 4° C. for 1 hr. Beads were then washed three times with immunoprecipitation buffer, resuspended in SDS sample buffer, and boiled for 5 min. Samples were separated using SDS-PAGE, and transferred to nitrocellulose membranes. Membranes were blocked for 1 hr at 25° C. in TBS containing 5% dry milk, incubated overnight 4° C. with a 1:300 dilution of anti-Ret antibody (C-19; Santa Cruz), then washed (3× in TBS containing 0.1% Tween-20) and incubated in a 1:10,000 dilution of anti-rabbit antibodies conjugated to HRP (Jackson Immunoresearch). Membranes were washed 3×, incubated with SuperSignal ULTRA (Pierce) for 5 minutes, then exposed to film. For MAP kinase (MAPK) assays, a portion of the total lysate wars removed before immunoprecipitation, separated by SDS-PAGE, and immunoblotted using an anti-phospho-MAP-kinase antibody (New England Biolabs).
NBL-S cells were plated at 3×10^5 cells/well in 6-well plates, and after 46 hr switched to low-serum (0.5%) medium for 2 hr, and then stimulated with NGF, GDNF or artemin (50 ng/ml) for 20 min. Cells were then collected and analyzed as above. For PI-PLC treatment, a parallel set of NBL-S cells were plated as above but treated with 500 mU/ml of PI-PLC (Boehringer-Mannheim) for 1 hr, and washed with PBS and stimulated with factors as above.
For orientation: In western blotting, separated proteins are transferred to a membrane and probed.

The target of the next test is T2, GFRα2/RET (Homo sapiens, UniProt O00451+P07949).
T2 construct: expressed in transfected cells; host or cells: MG87 fibroblasts stably expressing human RET (RET-3T3), transiently transfected with the CMV-GFRα2 plasmid
T2 sequence (O00451 22-444 limits assumed): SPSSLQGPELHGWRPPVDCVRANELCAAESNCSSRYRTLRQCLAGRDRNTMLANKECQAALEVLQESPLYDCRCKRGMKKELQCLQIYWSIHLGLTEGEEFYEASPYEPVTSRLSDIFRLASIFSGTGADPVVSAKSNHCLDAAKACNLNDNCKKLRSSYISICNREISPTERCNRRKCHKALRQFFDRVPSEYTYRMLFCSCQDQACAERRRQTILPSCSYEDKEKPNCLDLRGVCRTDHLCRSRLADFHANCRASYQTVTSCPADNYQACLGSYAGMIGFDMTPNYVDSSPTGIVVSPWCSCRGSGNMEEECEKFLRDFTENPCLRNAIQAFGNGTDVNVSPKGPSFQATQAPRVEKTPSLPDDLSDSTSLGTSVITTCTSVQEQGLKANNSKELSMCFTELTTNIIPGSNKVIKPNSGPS
T2 sequence (P07949 29-1114): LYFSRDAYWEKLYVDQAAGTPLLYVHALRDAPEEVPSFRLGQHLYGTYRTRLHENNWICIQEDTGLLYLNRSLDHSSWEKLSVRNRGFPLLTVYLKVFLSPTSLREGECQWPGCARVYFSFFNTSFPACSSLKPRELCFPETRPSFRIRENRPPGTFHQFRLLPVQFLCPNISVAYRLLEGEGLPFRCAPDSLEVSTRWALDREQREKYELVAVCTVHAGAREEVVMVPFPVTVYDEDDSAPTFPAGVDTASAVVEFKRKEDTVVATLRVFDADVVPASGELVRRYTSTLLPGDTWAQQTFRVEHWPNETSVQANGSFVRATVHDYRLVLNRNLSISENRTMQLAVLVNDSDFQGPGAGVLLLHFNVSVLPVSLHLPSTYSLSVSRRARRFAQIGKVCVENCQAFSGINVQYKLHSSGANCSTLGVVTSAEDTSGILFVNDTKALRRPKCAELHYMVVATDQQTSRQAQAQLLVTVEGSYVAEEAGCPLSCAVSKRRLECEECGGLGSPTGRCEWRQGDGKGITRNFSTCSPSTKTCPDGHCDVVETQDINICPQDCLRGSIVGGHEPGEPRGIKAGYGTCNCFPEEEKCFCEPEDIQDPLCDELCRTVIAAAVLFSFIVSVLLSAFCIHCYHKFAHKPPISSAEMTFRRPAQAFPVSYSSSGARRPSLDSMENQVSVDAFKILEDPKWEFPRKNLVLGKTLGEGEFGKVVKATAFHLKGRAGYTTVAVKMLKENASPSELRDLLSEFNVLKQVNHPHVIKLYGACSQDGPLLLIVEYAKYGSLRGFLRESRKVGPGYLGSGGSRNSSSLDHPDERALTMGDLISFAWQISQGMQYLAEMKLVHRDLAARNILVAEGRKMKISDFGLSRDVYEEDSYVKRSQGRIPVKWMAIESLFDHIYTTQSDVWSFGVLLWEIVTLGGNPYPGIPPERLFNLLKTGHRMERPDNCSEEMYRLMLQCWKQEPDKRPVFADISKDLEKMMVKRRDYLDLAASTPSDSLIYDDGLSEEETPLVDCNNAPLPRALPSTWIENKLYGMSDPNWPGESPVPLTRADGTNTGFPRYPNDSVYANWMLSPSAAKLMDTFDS
Nature of the test: Ga14-Elk/Ga14-Luc reporter in RET-3T3 fibroblasts transfected with GFRα2. To be noted: RET-3T3, 50 ng/ml for 6-8 hours, FIG. 10A. The format is cell-based. Here is the method: Thus, to directly test which receptor combinations can form functional receptors for artemin, expression plasmids for the individual GFRA coreceptors together with the Ga14-Elk/Ga14-Luc reporter system were transiently transformed into fibroblasts that stably express RET. […]
NLF neuroblastoma cells, which naturally express GFRα2/RET (Tansey et al., submitted), or the RET-3T3 cells were plated at 85,000 cells/well in 12-well plates, and cotransfected with the reporter plasmids Ga14-Luc and CMV-Ga14-Elk (250 ng/well and 50 ng/well, respectively), CMV-lacZ (50 ng/well) for transfection normalization, one of the CMV-GFRA expression plasmids (500 ng/well), and pBluescript (650 ng/well) as carrier for a total of 1.5 μg DNA/well using the Superfect reagent (Qiagen) according to the manufacturer's instructions. […] Measurement of luciferase and β-galactosidase activity was measured using a luminometer and performed as described (Svaren et al., EMBO J 17:6010-6019, 1998). The average luciferase activity of duplicate samples was normalized to β-galactosidase activity of the cotransformed lacZ reporter, and fold activation was calculated by dividing the normalized activity in factor-treated cells by that in the no treatment control.

T1 sequence (P07949 29-1114): as above

In the case of “artemin: recombinant mature human artemin (FIG. 3A, SEQ ID NO:3) with 8-histidine tag, produced in E. coli; GDNF family neurotrophic factor”, in the test with RET (50 ng/ml for 20 min), the “downstream signaling (activation of the MAP kinase pathway) in NBL-S cells” value is “effective in eliciting downstream signaling” and the “tyrosine-phosphorylation of RET in NBL-S cells” value is on record as “induced tyrosine-phosphorylation of RET”. In addition, in the test with RET (500 mU/ml PI-PLC for 1 hr, then factor 50 ng/ml for 20 min), the “effect of PI-PLC pretreatment on signaling in NBL-S cells” value is “abolished artemin's ability to activate RET and all downstream signaling”. Further, in the test with GFRα2/RET, the “activation of RET signaling in cells expressing GFRα2/RET (luciferase reporter)” value is “not GFRα2/RET”.

B1: GDNF: recombinant human mature GDNF obtained from Genentech (protein, UniProt P39905 78-211, looked up)
Glial cell line-derived …: SPDKQMAVLPRRERNRQAAAANPENSRGKGRRGQRGKNRGCVLTAIHLNVTDLGLGYETKEELIFRYCSGSCDAAETTYDKILKNLSRNRRLVSDKVGQACCRPIAFDDDLSFLDDNLVYHILRKHSAKRCGCI
Take B1: the “tyrosine-phosphorylation of RET in NBL-S cells” value with RET (50 ng/ml for 20 min) is recorded as “induced tyrosine-phosphorylation of RET”. Besides, the “activation of RET signaling in cells expressing GFRα2/RET (luciferase reporter)” value in the test with GFRα2/RET is “activated RET signaling”.
